Results on one molecule are retold here after patent US20210032664, “ENGINEERED MEGANUCLEASES WITH RECOGNITION SEQUENCES FOUND IN THE HUMAN BETA-2 MICROGLOBULIN GENE” (Precision Biosciences, Inc., published 2021).

Test in all cases: cell_activity; human T cells, 1 ug mRNA, day 3
Holding throughout (conditions): tags: N-terminal SV40 NLS

The target of one series is T1, B2M 13-14x.281 (Artificial Sequence).
T1 chain: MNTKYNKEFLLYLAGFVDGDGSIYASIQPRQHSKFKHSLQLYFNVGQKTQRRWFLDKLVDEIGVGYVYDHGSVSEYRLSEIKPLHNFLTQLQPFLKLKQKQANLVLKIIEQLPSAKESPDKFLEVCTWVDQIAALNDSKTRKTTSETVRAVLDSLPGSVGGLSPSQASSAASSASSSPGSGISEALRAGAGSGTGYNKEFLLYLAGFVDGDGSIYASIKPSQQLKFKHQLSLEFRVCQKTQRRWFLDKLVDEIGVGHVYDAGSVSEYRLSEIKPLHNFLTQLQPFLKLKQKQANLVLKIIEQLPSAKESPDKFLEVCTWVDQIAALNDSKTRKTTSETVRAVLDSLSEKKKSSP
On the procedure: (§1) Donor human T cells were stimulated with anti-CD3 and anti-CD28 antibodies for 3 days, then electroporated with mRNA encoding a given B2M 13-14 meganuclease (1 μg) using the Amaxa 4D-Nucleofector (Lonza) according to the manufacturer's instructions. To look for the loss of B2M surface expression, cells were stained with an antibody recognizing β-2 microglobulin (BD Biosciences) as well as an antibody recognizing CD3 (BioLegend), a marker of T cells.

In a further series the target is T2, B2M 13-14x.317 (Artificial Sequence).
T2 chain: T1 chain with S221Y, Q223T, Q229Y, S231F, C237Y, A261T
On the procedure: as §1

The next series addresses T3, B2M 13-14x.456 (Artificial Sequence).
T3 chain: T1 chain with H32A, S33A, S38T, S217V, S221Q, Q223H, S231F, C237S, A261S
The method, then:
as §1

The target of another series is T4, B2M 13-14x.362 (Artificial Sequence).
T4 chain: T1 chain with S217V, Q223H, Q229Y, S231T, C237S, A261M
On the procedure: as §1

The next series has as its target T5, B2M 13-14x.287 (Artificial Sequence).
T5 chain: T1 chain with S221C, Q223C, S231F, C237T, A261S, E266D
The method, then:
as §1

Another series concerns the target T6, B2M 13-14x.285 (Artificial Sequence).
T6 chain: T1 chain with S217C, Q223A, Q229Y, S231V, C237F, A261N, E266D
On the procedure:
as §1

Another series addresses T7, B2M 13-14x.202 (Artificial Sequence).
T7 chain: T1 chain with H32A, S33A, S38T, S221N, Q223T, Q229A, C237A, A261F
On the procedure: as §1

Where a chain is given by its changes, count along the chain named. Names may count otherwise.

B1: B2M 13-14 recognition sequence (dsDNA)
DNA 1: CTATCTCTTGTACTACACTGAA
DNA 2: TTCAGTGTAGTACAAGAGATAG
Turning to B1, the activity is 53.6 % B2M-negative with B2M 13-14x.281; 3.91 % B2M-negative in the series with B2M 13-14x.317; 15.7 % B2M-negative with B2M 13-14x.456; 37.8 % B2M-negative with B2M 13-14x.362; 75.7 % B2M-negative with B2M 13-14x.287; 22 % B2M-negative with B2M 13-14x.285. The activity in the series with B2M 13-14x.202 turned out to be 60.9 % B2M-negative.
